Biological target: Polyketide synthase 13 (Pks13) of Mycobacterium smegmatis (Mycobacterium smegmatis) (UniProt A0R617)
Test: native gel or EMSA; blue native PAGE of the protein of both sizing-column peaks; purified in β-DDM

- stoichiometry N: 2
Substance: Polyketide synthase 13 (Pks13) of Mycobacterium smegmatis (from UniProt A0R617 1-1816) (enzyme)

From article doi:10.1101/2023.01.27.525930
